In PMC5399559 (2017) one finds Kd data, which are given here for 1 molecule.

In test [1] the target is taxol-stabilized microtubules (MTs). Kind of test: 100 mM KCl.
Test [2] shares this target. Kind of test: 30 mM KCl.
The target is the same in test [3]. Briefly: 200 mM KCl.

taxol-stabilized microtubules (MTs), sequence (chain, as listed by the source, chain 1 of 2): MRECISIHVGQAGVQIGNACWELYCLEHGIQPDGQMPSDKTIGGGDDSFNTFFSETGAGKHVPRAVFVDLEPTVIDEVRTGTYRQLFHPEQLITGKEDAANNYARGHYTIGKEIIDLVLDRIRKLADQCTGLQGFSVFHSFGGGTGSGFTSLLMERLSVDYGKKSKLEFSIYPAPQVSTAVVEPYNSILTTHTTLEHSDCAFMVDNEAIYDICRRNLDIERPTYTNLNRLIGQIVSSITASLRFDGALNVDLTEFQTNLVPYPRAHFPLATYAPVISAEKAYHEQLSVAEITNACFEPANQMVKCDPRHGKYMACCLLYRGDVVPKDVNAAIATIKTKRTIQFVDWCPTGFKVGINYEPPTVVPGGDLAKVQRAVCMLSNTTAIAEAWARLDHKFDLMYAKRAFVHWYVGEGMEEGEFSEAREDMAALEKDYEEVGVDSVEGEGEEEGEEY
taxol-stabilized microtubules (MTs), sequence (chain, as listed by the source, chain 2 of 2): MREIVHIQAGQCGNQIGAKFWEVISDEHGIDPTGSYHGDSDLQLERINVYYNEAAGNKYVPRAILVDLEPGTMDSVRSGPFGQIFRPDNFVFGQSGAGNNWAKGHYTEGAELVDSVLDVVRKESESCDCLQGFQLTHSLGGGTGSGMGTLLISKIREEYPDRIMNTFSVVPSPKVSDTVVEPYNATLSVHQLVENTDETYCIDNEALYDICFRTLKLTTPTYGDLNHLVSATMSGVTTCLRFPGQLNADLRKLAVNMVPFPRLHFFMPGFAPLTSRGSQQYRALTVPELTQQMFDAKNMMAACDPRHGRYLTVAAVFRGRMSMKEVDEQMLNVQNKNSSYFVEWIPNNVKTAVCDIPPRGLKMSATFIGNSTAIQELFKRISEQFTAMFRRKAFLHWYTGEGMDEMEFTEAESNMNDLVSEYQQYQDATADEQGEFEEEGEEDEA

B1: MBP-Kif18A^tail-His6 (tail of Xl_Kif18A, aa 846-953) (domain or fragment)
chain: PSYMAMTSAAERKRKLLSLAGNSAVKEDSVPLPTAKRVRQDIALDCKALRVQRVAAGTTRSKDNCARRRLPKSVSEGALGVKTKPFSFQGSAQLLFQGGKKKAALKDP
By Kd is commonly meant the free concentration of one partner at which half of the binding sites on the other are occupied at equilibrium, for simple one-to-one binding. A high value points to a looser complex. As for B1, the results for the dissociation constant (Kd) in test [1], in test [2] and in test [3] were 770 nM, 340 nM and 3010 nM, respectively.
